Entries after “also recorded” stand apart in the source; their conditions may differ.
Columns and labels:
D-biotin-labeled albumin = assay: SPR (Biacore T200) binding evaluation to D-biotin-labeled albumin; parameters: species or system bovine; details: analyte flowed at 30 μL/min up to 100 nM, single cycle method, albumin immobilized on sensor chip
Protocol: (§1) A binding ability of D-streptavidin obtained in Example 1 to D-biotin as a natural form and L-biotin as an optical isomer of D-biotin was evaluated by an intermolecular interaction analyzer (Biacore T200) using SPR as a measurement principle.
An N,N-dimethylformamide solution (16.3 μL) containing 10 mg/mL D-biotin-AC5-OSu (manufactured by DOJINDO LABORATORIES) was added to 2.8 mL of 50 mg/mL bovine serum albumin/0.1 M phosphate buffer solution (pH 7.5), and the mixture was stirred, then allowed to stand at 35° C. for 1 hour. Thereafter, desalting was performed by PD-10 (17085101, manufactured by Cytiva) equilibrated with a 0.1 M phosphate buffer (pH 7.5), and D-biotin-labeled albumin was recovered. The number of labeled D-biotin per molecule of albumin by HABA method was 0.4.
Bovine serum albumin was immobilized on flow cells 1 and 3 of a CMS sensor chip (manufactured by Cytiva) of a Biacore T200 system at a target level of 400 RU by an amine coupling method with an amine coupling kit (Cytiva). […]
(§2) Using HBS-EP+(manufactured by Cytiva) as a running buffer, the prepared D-tamavidin (trademark) 2 was flowed into each flow cell at a flow rate of 30 μL/min in the range of 100 pM to 100 nM by a single cycle method, and binding and dissociation to D-biotin or L-biotin was evaluated by Biacore T200 Evaluation Software (manufactured by Cytiva).

L-biotin-labeled albumin = assay: SPR (Biacore T200) binding evaluation to L-biotin-labeled albumin; parameters: species or system bovine; details: analyte flowed at 30 μL/min up to 100 nM, single cycle method, albumin immobilized on sensor chip
Protocol: as §1
Similarly, L-biotin-labeled albumin was prepared using L-biotin-AC5-OSu [see (Amidation of L-biotin) described in Example 3 above].
Bovine serum albumin was immobilized on flow cells 1 and 3 of a CMS sensor chip (manufactured by Cytiva) of a Biacore T200 system at a target level of 400 RU by an amine coupling method with an amine coupling kit (Cytiva). Further, L-biotin-labeled albumin and D-biotin-labeled albumin were immobilized at a target level of 400 RU to flow cells 2 and 4, respectively, similarly by an amine coupling method. Blocking was performed in each flow cell with 1 M ethanolamine solution, pH 8.5 (manufactured by Cytiva). […]
as §2

B1: D-tamavidin (trademark) 2: avidin-like protein derived from Pleurotus cornucopiae consisting of D amino acids, 2nd to 141st amino acid sequence of SEQ ID NO: 4 (peptide, listed as Pleurotus cornucopiae)
chain: SDVQSSLTGTWYNELNSKMELTANKDGTLTGKYLSKVGDVYVPYPLSGRYNLQPPAGQGVALGWAVSWENSKIHSATTWSGQFFSESSPVILTQWLLSSSTARGDVWESTLVGNDSFTKTAPTEQQIAHAQLHCRAPRLK
modifications: D-amino acids
- binding to D-biotin-labeled albumin (SPR sensorgram) (D-biotin-labeled albumin): No increase in SPR signal; also recorded: does not substantially bind
- binding to L-biotin-labeled albumin (SPR sensorgram) (L-biotin-labeled albumin): increase in the SPR signal was observed; also recorded: binds

From patent publication US20230288411A1, “POLYPEPTIDE, MULTIMER, SOLID PHASE, MEASUREMENT METHOD FOR TEST SUBSTANCE, AND REAGENT KIT” (SYSMEX CORPORATION, priority 2020, published 2023)
